Results reported in US20200079833A1 (AstraZeneca / MedImmune, published 2020).
Starred links: 1 amine or outer side, 2 acyl side, 3 side chain; linkers in the order of their positions; H or OH if unused. Non-standard residues stand in square brackets, D forms with d. Groups on a side chain read outwards from the residue. Primed or numbered codes have the meaning given here. No end group written: not given here. *: point of attachment. γGlu = O=C(O)[C@H](CCC(=O)[*:2])N[*:1]; Stearoyl = CCCCCCCCCCCCCCCCCC(=O)*; Palmitoyl = CCCCCCCCCCCCCCCC(=O)*; αMeF = C[C@](N)(Cc1ccccc1)C(=O)O; αMeK = C[C@](N)(CCCCN)C(=O)O; αMeS = C[C@](N)(CO)C(=O)O; PEG2′ = not defined here; Aib = CC(C)(N)C(=O)O

T1: glucose-dependent insulinotropic peptide (gastric inhibitory polypeptide) receptor (GIPR) (human, UniProt P48546 22-466)
T1 sequence (looked up): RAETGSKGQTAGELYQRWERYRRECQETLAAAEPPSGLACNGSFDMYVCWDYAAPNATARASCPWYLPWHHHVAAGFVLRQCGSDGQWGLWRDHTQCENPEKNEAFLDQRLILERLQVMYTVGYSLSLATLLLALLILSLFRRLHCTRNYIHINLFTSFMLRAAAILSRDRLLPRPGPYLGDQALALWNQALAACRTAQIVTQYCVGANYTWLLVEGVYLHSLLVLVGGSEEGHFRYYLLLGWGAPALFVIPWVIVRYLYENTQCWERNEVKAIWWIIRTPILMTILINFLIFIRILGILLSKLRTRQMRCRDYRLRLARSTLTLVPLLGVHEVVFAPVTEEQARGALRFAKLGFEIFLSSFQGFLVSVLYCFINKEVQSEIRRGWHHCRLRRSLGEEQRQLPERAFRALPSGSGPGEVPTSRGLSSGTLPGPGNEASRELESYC


Key:
Experiment in all cases: cell-based or functional assay
glucagon receptor (GCGR) = glucagon receptor (GCGR) (human, UniProt P47871 26-477)
[1] = molecular target: T1, glucose-dependent insulinotropic …
GLP-1 receptor (GLP-1R) = GLP-1 receptor (GLP-1R) (human, UniProt P43220 24-463)

Sequence of glucagon receptor (GCGR) (P47871 26-477): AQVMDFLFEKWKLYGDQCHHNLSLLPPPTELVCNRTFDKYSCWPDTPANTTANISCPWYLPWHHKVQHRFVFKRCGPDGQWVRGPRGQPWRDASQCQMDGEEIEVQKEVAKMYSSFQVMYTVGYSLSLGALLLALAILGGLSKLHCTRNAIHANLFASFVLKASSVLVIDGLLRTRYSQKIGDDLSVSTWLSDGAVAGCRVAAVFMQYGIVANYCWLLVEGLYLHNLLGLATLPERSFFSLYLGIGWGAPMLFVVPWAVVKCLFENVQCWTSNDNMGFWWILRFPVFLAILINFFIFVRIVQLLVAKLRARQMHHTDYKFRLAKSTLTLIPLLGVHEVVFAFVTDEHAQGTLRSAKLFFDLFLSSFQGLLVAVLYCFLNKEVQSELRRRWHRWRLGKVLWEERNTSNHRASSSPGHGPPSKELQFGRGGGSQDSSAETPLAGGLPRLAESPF

cAMP Primary assay EC50 Gluc-R (glucagon receptor (GCGR)) [nM]	cAMP Primary assay EC50 Gluc-R (2nd) (glucagon receptor (GCGR)) [nM]	cAMP Primary assay EC50 GIP-R [1] [nM]	cAMP Primary assay EC50 GIP-R (2nd) [1] [nM]	cAMP Mean pM GLP-1R (GLP-1 receptor (GLP-1R)) [pM]	cAMP Primary assay EC50 GLP-1R n1 (GLP-1 receptor (GLP-1R)) [pM]	cAMP Primary assay EC50 GLP-1R n2 (GLP-1 receptor (GLP-1R)) [pM]	Binder
25	25.2	25	25.2	22	24	20.6	H[Aib]EGS[αMeF]TSDV[αMeS]S[αMeF]LEGEAA[αMeK]E[αMeF]IA[αMeF]VK([PEG2′-PEG2′-γGlu-Stearoyl])[αMeK]GG-NH2 [SEQ ID NO 102]
28	28	28	28	27500	28000	28000	HK([γGlu-Palmitoyl])EGS[αMeF]TSDV[αMeS]S[αMeF]LEGEAA[αMeK]E[αMeF]IA[αMeF]VV[αMeK]GG-NH2 [SEQ ID NO 98]
28	28	28	28	224	260	190	H[Aib]EGK([γGlu-Palmitoyl])[αMeF]TSDV[αMeS]S[αMeF]LEGEAA[αMeK]E[αMeF]IA[αMeF]VV[αMeK]GG-NH2 (N-terminus assumed; SMILES CCCCCCCCCCCCCCCC(=O)N[C@@H](CCC(=O)NCCCC[C@H](NC(=O)CNC(=O)[C@H](CCC(=O)O)NC(=O)C(C)(C)NC(=O)[C@@H](N)Cc1c[nH]cn1)C(=O)N[C@@](C)(Cc1ccccc1)C(=O)N[C@H](C(=O)N[C@@H](CO)C(=O)N[C@@H](CC(=O)O)C(=O)N[C@H](C(=O)N[C@@](C)(CO)C(=O)N[C@@H](CO)C(=O)N[C@@](C)(Cc1ccccc1)C(=O)N[C@@H](CC(C)C)C(=O)N[C@@H](CCC(=O)O)C(=O)NCC(=O)N[C@@H](CCC(=O)O)C(=O)N[C@@H](C)C(=O)N[C@@H](C)C(=O)N[C@@](C)(CCCCN)C(=O)N[C@@H](CCC(=O)O)C(=O)N[C@@](C)(Cc1ccccc1)C(=O)N[C@H](C(=O)N[C@@H](C)C(=O)N[C@@](C)(Cc1ccccc1)C(=O)N[C@H](C(=O)N[C@H](C(=O)N[C@@](C)(CCCCN)C(=O)NCC(=O)NCC(N)=O)C(C)C)C(C)C)[C@@H](C)CC)C(C)C)[C@@H](C)O)C(=O)O) [SEQ ID NO 95]
25	24.9	25	24.9	15	16	14.6	H[Aib]EGS[αMeF]TSDV[αMeS]S[αMeF]LEGEAA[αMeK]E[αMeF]IA[αMeF]VV[αMeK]K([PEG2′-PEG2′-γGlu-Stearoyl])G-NH2 [SEQ ID NO 100]
25	25.2	25	25.2	5	4.7	4.56	H[Aib]EGS[αMeF]TSDV[αMeS]S[αMeF]LEGEAA[αMeK]E[αMeF]IA[αMeF]K([PEG2′-PEG2′-γGlu-Stearoyl])V[αMeK]GG-NH2 [SEQ ID NO 103]

The next lines start with the binder.

Binder	cAMP Primary assay EC50 Gluc-R (glucagon receptor (GCGR)) [nM]	cAMP Primary assay EC50 Gluc-R (2nd) (glucagon receptor (GCGR)) [nM]	cAMP Primary assay EC50 GIP-R [1] [nM]	cAMP Primary assay EC50 GIP-R (2nd) [1] [nM]	cAMP Mean pM GLP-1R (GLP-1 receptor (GLP-1R)) [pM]	cAMP Primary assay EC50 GLP-1R n1 (GLP-1 receptor (GLP-1R)) [pM]	cAMP Primary assay EC50 GLP-1R n2 (GLP-1 receptor (GLP-1R)) [pM]
H[Aib]K([γGlu-Palmitoyl])GS[αMeF]TSDV[αMeS]S[αMeF]LEGEAA[αMeK]E[αMeF]IA[αMeF]VV[αMeK]GG-NH2 (N-terminus assumed; SMILES CCCCCCCCCCCCCCCC(=O)N[C@@H](CCC(=O)NCCCC[C@H](NC(=O)C(C)(C)NC(=O)[C@@H](N)Cc1c[nH]cn1)C(=O)NCC(=O)N[C@@H](CO)C(=O)N[C@@](C)(Cc1ccccc1)C(=O)N[C@H](C(=O)N[C@@H](CO)C(=O)N[C@@H](CC(=O)O)C(=O)N[C@H](C(=O)N[C@@](C)(CO)C(=O)N[C@@H](CO)C(=O)N[C@@](C)(Cc1ccccc1)C(=O)N[C@@H](CC(C)C)C(=O)N[C@@H](CCC(=O)O)C(=O)NCC(=O)N[C@@H](CCC(=O)O)C(=O)N[C@@H](C)C(=O)N[C@@H](C)C(=O)N[C@@](C)(CCCCN)C(=O)N[C@@H](CCC(=O)O)C(=O)N[C@@](C)(Cc1ccccc1)C(=O)N[C@H](C(=O)N[C@@H](C)C(=O)N[C@@](C)(Cc1ccccc1)C(=O)N[C@H](C(=O)N[C@H](C(=O)N[C@@](C)(CCCCN)C(=O)NCC(=O)NCC(N)=O)C(C)C)C(C)C)[C@@H](C)CC)C(C)C)[C@@H](C)O)C(=O)O) [SEQ ID NO 97]	28	28	28	28	27800	28000	28000
H[Aib]EGS[αMeF]TSDV[αMeS]S[αMeF]LEGEAA[αMeK]E[αMeF]IA[αMeF]VV[αMeK]GK([PEG2′-PEG2′-γGlu-Stearoyl])-NH2 [SEQ ID NO 99]	25	24.9	25	24.9	54	58	49.3
H[Aib]EK([γGlu-Palmitoyl])S[αMeF]TSDV[αMeS]S[αMeF]LEGEAA[αMeK]E[αMeF]IA[αMeF]VV[αMeK]GG-NH2 (N-terminus assumed; SMILES CCCCCCCCCCCCCCCC(=O)N[C@@H](CCC(=O)NCCCC[C@H](NC(=O)[C@H](CCC(=O)O)NC(=O)C(C)(C)NC(=O)[C@@H](N)Cc1c[nH]cn1)C(=O)N[C@@H](CO)C(=O)N[C@@](C)(Cc1ccccc1)C(=O)N[C@H](C(=O)N[C@@H](CO)C(=O)N[C@@H](CC(=O)O)C(=O)N[C@H](C(=O)N[C@@](C)(CO)C(=O)N[C@@H](CO)C(=O)N[C@@](C)(Cc1ccccc1)C(=O)N[C@@H](CC(C)C)C(=O)N[C@@H](CCC(=O)O)C(=O)NCC(=O)N[C@@H](CCC(=O)O)C(=O)N[C@@H](C)C(=O)N[C@@H](C)C(=O)N[C@@](C)(CCCCN)C(=O)N[C@@H](CCC(=O)O)C(=O)N[C@@](C)(Cc1ccccc1)C(=O)N[C@H](C(=O)N[C@@H](C)C(=O)N[C@@](C)(Cc1ccccc1)C(=O)N[C@H](C(=O)N[C@H](C(=O)N[C@@](C)(CCCCN)C(=O)NCC(=O)NCC(N)=O)C(C)C)C(C)C)[C@@H](C)CC)C(C)C)[C@@H](C)O)C(=O)O) [SEQ ID NO 96]	27	27	27	27	746	920	570
H[Aib]EGS[αMeF]TSDV[αMeS]S[αMeF]LEGEAA[αMeK]E[αMeF]IA[αMeF]VVK([PEG2′-PEG2′-γGlu-Stearoyl])GG-NH2 [SEQ ID NO 101]	25	25.4	25	25.4	55	58	51.2
